Data as given in patent US20250369960A1, “PER- AND POLYFLUORINATED ALKYL COMPOUND (PFAS) BINDING PROTEINS AND USES THEREOF” (Allonnia, LLC, priority 2022, published 2025).

B1: mAB3: rabbit anti-PFOA monoclonal antibody, heavy chain variable SEQ ID NO: 17, light chain variable SEQ ID NO: 22 (antibody, listed as Oryctolagus cuniculus, V domains shown)
VH: QSLEESEGGLFKPGGTLTLTCTVSGFSLNIYSISWVRQAPGKELEWIGTMSNVDATYYANWAKSRSTITRNINESTVTLKMPSLTVADTATYFCARYIYGAGYDIWGPGTLVTVSS
VL: ADIVMTQTPASVEAAVGGTVTIKCQASQSISSWLSWYQQKPGQPPKLLIYKASTLASGVPSRFKGSGSGTEYTLTISGVQCADAATYYCQSVYYSSSTNYGNTFGGGTEVVVKG
B2: mAB5: rabbit anti-PFOA monoclonal antibody, heavy chain variable SEQ ID NO: 19, light chain variable SEQ ID NO: 24 (antibody, listed as Oryctolagus cuniculus, V domains shown)
VH: QSVKESEGGLFKPTDTLTLTCTASGFSLSSYGVIWVRQAPGKGLQWIGFINIYGTPSYASWAMGRSTITGNTNLNTVILKMTSLTVADTATYFCASSVGSDGYLYSSDIWGPGTLVTVSS
VL: DPVLTQTPSSVSAAVGGTVTINCQASQSVYNNKCLAWYQQKPGQPPKLLIYGASTLASGVPSRFSGSGSGTQFTLTISDLECDDAATYYCAGGYYSEIHFGGGTEVVVKG
B3: mAB1: rabbit anti-PFOA monoclonal antibody, heavy chain variable SEQ ID NO: 15, light chain variable SEQ ID NO: 20 (antibody, listed as Oryctolagus cuniculus, V domains shown)
VH: QSVKESEGGLFKPTDTLTLTCTASGFSLSSYGVSWVRQAPGNGLEWIGSIEDGGSAYYASWAKSRSTITSNTNLNTVTLQMTSLTAADTATYFCGSLSIGSAYPGIWGPGTLVTVSS
VL: AIVMTQTPSSKSVPVGDTVTIKCQASQSIGTRLAWFQQKPGQPPKRLIYSASTLASGVPSRFSGSGSGTQFTLTISDVVCDDAAAYYCGGYKSSSSDGIAFGGGTEVVVKG
B4: mAB2: rabbit anti-PFOA monoclonal antibody, heavy chain variable SEQ ID NO: 16, light chain variable SEQ ID NO: 21 (antibody, listed as Oryctolagus cuniculus, V domains shown)
VH: QSVKESEGGLFKPTDNLTLTCAVSRFSLSSYGVSWVRQAPGNGLEWIGYIYTDGSAYYASWAKSRSTITRNTNLNTVTLKMTSLTAADTATYFCARHSSGWGIDYFNVWGPGTLVTVSS
VL: AAVLTQTPSSVSAAVGGTVTINCQASQSVYNNNYLSWYQQKPGQPPKLLIYLASTLASGVPSRFSGSGSGTEFTLTISDLECDDGATYYCAGGVTSSDRPFGGGTEVVVKG
B5: mAB4: rabbit anti-PFOA monoclonal antibody, heavy chain variable SEQ ID NO: 18, light chain variable SEQ ID NO: 23 (antibody, listed as Oryctolagus cuniculus, V domains shown)
VH: QEQLEESRGGLIKPTDTLTLTCTASGFSLSNYGINWVRQAPGEGLEWIGAIRGSGFIYYATWAKSRSTITRNTNLNTVTLKMTSLTAADTATYFCARRDGLYSAMDPWGPGTLVTVSS
VL: DPVLTQTPSSTSAAVGGTVTISCQSSDSVYKNNYLAWFQQKPGQPPKVLIYHASKLASGVPSRFSGSGSGTQFTLTISGVQCDDAATYYCLGEYSDTHVFGGGTEVVVKG

Columns and labels:
[1] = Surface plasmon resonance, antibody on CM5 sensor chip; type: binding; settings: for SPR signal with PFOA: PFOA between 41 ppm and 41 ppb; for type of SPR binding interaction: instant association and dissociation curve
Description: Surface plasmon resonance occurs when a directed light at a specific angle of incidence excites electrons in a thin metal sheet. As a result, the electrons travel parallel to the sheet. This is related to the refractive index of the material. Even a small change alters the response, allowing SPR to be used as a techniques for detection of physical interactions between analytes. […] In this example, the antibody is bound to a sensor chip that carries a matrix of carboxymethylated dextran covalently attached to a gold surface. In this example, the chip is a CM5 sensor chip.
mAb3 (FIG. 11) and mAB5 (FIG. 12) were tested for binding with different concentrations of PFOA ([…], 10 μM, 1 μM, 0.1 μM). The concentration of PFOA tested was between ˜41 ppm and 41 ppb.

[2] = Competitive ELISA, conjugated PFOA versus free PFOA; type: binding; settings: for lowest PFOA concentration detected: synthetic matrix under laboratory conditions
Method: (§1) Microplates were treated with anti-PFOA mABs. After incubation, the wells were exposed to a biotin-PFOA conjugate and free PFOA compounds, which compete for a finite number of antibody recognition sites. Next, streptavidin-HRP conjugate was added, which binds to the biotin-PFOA molecules. The resultant color reaction was measured spectrophotometrically. P. Langer et al., 78 Proc. Nat'l Acad. Sci USA 6633-37 (1981); A. Forster et al., 13 Nucleic Acids Res. 745-61 (1985); L. Riley et al., 5 DNA 333-37 (1986); M.D. Savage et al., Avidin-Biotin Chemistry: A Handbook (Pierce Chemical Co., 467 pp., 1992). The amount of signal was inversely proportional to the concentration of free-PFOA provided. This approach determined the dynamic range of antibody detection.
Antibodies mAB3 and mAB5 were then tested for dose response to PFOA using the competitive ELISA described in FIG. 1B. The assay was performed using two carrier molecules: (1) biotin (small carrier), and (2) horse radish peroxidase (HRP; large carrier). […] Also observed was the dynamic response of the assay to 0.5 ppb (500 ppt) of PFOA.
A plasmid containing the sequence for antibody mAB3 was expressed in Expi293 cells, and the resulting antibody was purified using Protein A and gel filtration chromatography, as is well known in the art. This antibody was tested for its binding affinity to PFOA using the competitive ELISA described in FIG. 1B.

[3] = Competitive ELISA, specificity of binding to PFOA compared with octanoic acid; settings: FIG. 5
Method: as §1
Antibodies mAB3 and mAB5 were also tested for specificity of binding to PFOA as compared to known analogs, such as OA.

[4] = Competitive ELISA, binding affinity to other PFAS compounds
Method: as §1
The mAB3 produced in vitro was also tested for its binding affinity to other PFAS compounds, including PFOS, PFHxS, and PFBA.

[5] = Indirect ELISA on microplates coated with BSA-PFOA conjugate; type: binding; settings: for response to BSA-PFOA at 1:50,000 dilution: antibody dilution 1:50,000; for binding affinity to BSA-PFOA: indirect ELISA, various antibody dilutions
Method: Polyclonal rabbit antibodies to PFOA were prepared according to methods well known in the art. E. Harlow & D. Lane, Antibodies: A Laboratory Manual (1988) (published by Cold Spring Harbor Press, Cold Spring Harbor, N.Y.). These polyclonal antibodies were tested for their binding affinity to PFOA (FIG. 1A). PFOA was conjugated to bovine serum albumin by methods well known in the art. G.T. Hermanson, Bioconjugate Techniques (Academic Press, 785 pp., 1995). S.S. Wong, Chemistry of Protein Conjugation and Cross-Linking (CRC Press, 340 pp., 1991); G.T. Hermanson et al., Immobilized Affinity Ligand Techniques (Academic Press, 450 pp., 1992). Microplates were treated with BSA-PFOA conjugate and incubated. After washing with buffer, blocking solution was added followed by varying dilutions of monoclonal antibodies (mABs). The plate was then further incubated. After washing again, anti-rabbit secondary antibodies were added. A color reaction was developed using tetramethyl benzidine (TMB), and the reaction was read at 450 nm.
The results were consistent over various antibody dilutions.

[6] = Waveguide interferometry, antibody coupled to waveguide surface; type: binding; settings: groundwater from a contaminated site, approximately 7.5 ppb PFOA, compared with 2 ppb PFOA signal
Method: The device combines two very sensitive methods, waveguiding and interferometry, to form waveguide interferometry technology used in rapid low-level detection sensing applications. In optical interferometry, small changes in refractive index are measured along the pathway of an optical beam of light during its propagation. As the light propagates, it generates an optical electromagnetic field, a small fraction of which-known as the evanescent field-enables detection by interacting with the changes in refractive index occurring on the waveguide cover layer. […] As PFAS is introduced to the functionalized waveguide, PFAS binding to the antibody displaces the sample solution near the waveguide surface, changing the light beam's velocity. Simultaneously, an adjacent reference beam is left unperturbed and is optically combined with the sensing beam to measure the velocity change. This creates an interference pattern that shifts as the refractive index changes, producing a corresponding change in the relative phase measurement.
Binding of PFAS binding proteins to PFAS was tested using interferometry. Specifically, binding of anti-PFOA antibody mAB5 to PFOA was measured by comparing the interferometry signal for a 1% methanol PBS buffer containing either 0 ppb PFOA (negative control; FIG. 14A) or 2 ppb PFOA (test sample; FIG. 14B). […]

Row | Molecule | SPR signal with PFOA [1] | type of SPR binding interaction [1] | lowest PFOA concentration detected [2] | response to BSA-PFOA at 1:50,000 dilution [5] | binding affinity to BSA-PFOA [5] | also measured
1 | B1 | concentration dependent signal | steady-state interaction | 0.5 ppb | very depressed | best binding affinity | binding affinity to PFOA ([2]; antibody expressed in Expi293 cells, purified using Protein A and gel filtration chromatography): about 1 ppt; binding affinity to PFOA ([2]; antibody isolated from rabbit serum): about 500 ppt; affinity to OA as compared to PFOA [3]: six-fold lower; binding to PFOS and other PFAS compounds in addition to PFOA ([4]; FIG. 9): can bind; binding affinity to PFOS as compared to PFOA ([4]; purified antibody produced in vitro): 99%; response to BSA-PFOA at 1:25,000 dilution compared with 1:5,000 ([5]; antibody dilution 1:25,000 vs 1:5,000): approximately four-fold lower
2 | B2 | concentration dependent signal | steady-state interaction | 0.5 ppb | negligible | best binding affinity | interferometry signal in groundwater [6]: consistent and approximately proportional to the concentration of PFOA; response to PFOA versus OA [3]: 78 fold
3 | B3 |  |  |  |  | no significant binding affinity | 
4 | B4 |  |  |  |  | no significant binding affinity | 
5 | B5 |  |  |  |  | no significant binding affinity | 
